The values that follow come from article PMC3976300.

Assay in all cases: intrinsic fluorescence quenching
The subject of series [1] is All4779 (Anabaena sp. PCC7120). The conditions noted are these: Fluorescence: 20 mM Tris-HCl pH 8, 1 mM EDTA, 20 or 100 mM NaCl, room temperature, EMSA: 20 mM Tris-HCl pH 8, 1 mM MgCl2, 100 mM KCl, 8 mM DTT, 4% sucrose …. On the technique in general: Mobility shift assays separate free from complexed probe on a gel.
The subject of series [2] is EcoSSB (Escherichia coli). To be noted: 20 mM NaCl; Fluorescence: 20 mM Tris-HCl pH 8, 1 mM EDTA, 20 or 100 mM NaCl, room temperature; EMSA: 20 mM Tris-HCl pH 8, 1 mM MgCl2, 100 mM KCl, 8 mM DTT, 4% sucrose ….
Series [3] concerns Alr0088 (Anabaena sp. PCC7120). To be noted: Fluorescence: 20 mM Tris-HCl pH 8, 1 mM EDTA, 20 or 100 mM NaCl, room temperature, EMSA: 20 mM Tris-HCl pH 8, 1 mM MgCl2, 100 mM KCl, 8 mM DTT, 4% sucrose ….
The mark [4] stands for this setting: 20 mM NaCl, reciprocal of poly(dT) concentration at 50% fluorescence.

With poly(dT), the results for the Ka in series [1] (setting [4]), in series [2] and in series [3] (setting [4]) were 5.13e+07 M⁻¹, 6.76e+07 M⁻¹ and 2.56e+06 M⁻¹, respectively.

Regarding M13 ssDNA, the binding signal in series [1] (high NaCl) was 18 % quenching; in series [3] (high NaCl) it was 40 % quenching.
